The supplement of paper PMC9112550, “Optimization of the antimicrobial peptide Bac7 by deep mutational scanning” (BMC Biology, 2022)

What follows are sequences tested on Escherichia coli TOP10 (assay: shrunken log2 fold change of peptide-encoding DNA abundance (4.5 h post-induction vs induction); higher = less antimicrobial activity (less host growth inhibition)). Conditions: time post-induction: 4.5 h; library: site-saturation at positions 5, 18, 19, 20.
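Note: peptides expressed intracellularly from a pBAD plasmid library in pooled LB shake-flask culture, induced with 0.3% L-arabinose, DNA abundance read by NGS, three biological replicates, DESeq2 with apeglm shrinkage.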

Sequence	shrunken log2 fold change
RRIRHRPPRLPRPRPRPNDRPRP	-0.104
RRIRHRPPRLPRPRPRPNEFPRP	-0.00664
RRIRHRPPRLPRPRPRPNEKPRP	-0.0239
RRIRHRPPRLPRPRPRPNFCPRP	-0.0463
RRIRHRPPRLPRPRPRPNFNPRP	-0.509
RRIRHRPPRLPRPRPRPNFPPRP	-0.189
RRIRHRPPRLPRPRPRPNHDPRP	-0.719
RRIRHRPPRLPRPRPRPNIMPRP	-0.596
RRIRHRPPRLPRPRPRPNISPRP	-0.319
RRIRHRPPRLPRPRPRPNKPPRP	-0.0637
RRIRHRPPRLPRPRPRPNLMPRP	0.0972
RRIRHRPPRLPRPRPRPNLSPRP	0.28
RRIRHRPPRLPRPRPRPNMRPRP	0.0719
RRIRHRPPRLPRPRPRPNNRPRP	-0.329
RRIRHRPPRLPRPRPRPNPEPRP	-0.00699
RRIRHRPPRLPRPRPRPNPYPRP	-0.161
RRIRHRPPRLPRPRPRPNRCPRP	-0.259
RRIRHRPPRLPRPRPRPNRGPRP	-0.123
RRIRHRPPRLPRPRPRPNRIPRP	-0.46
RRIRHRPPRLPRPRPRPNRNPRP	-1.01
RRIRHRPPRLPRPRPRPNSNPRP	-1.16
RRIRHRPPRLPRPRPRPPAIPRP	0.0959

Sequence	shrunken log2 fold change
RRIRHRPPRLPRPRPRPPANPRP	0.478
RRIRHRPPRLPRPRPRPPCSPRP	-0.217
RRIRHRPPRLPRPRPRPPDGPRP	0.178
RRIRHRPPRLPRPRPRPPDKPRP	-0.112
RRIRHRPPRLPRPRPRPPDLPRP	0.0765
RRIRHRPPRLPRPRPRPPDMPRP	0.0267
RRIRHRPPRLPRPRPRPPELPRP	0.469
RRIRHRPPRLPRPRPRPPFIPRP	-0.483
RRIRHRPPRLPRPRPRPPFRPRP	0.141
RRIRHRPPRLPRPRPRPPGIPRP	0.142
RRIRHRPPRLPRPRPRPPHCPRP	-0.203
RRIRHRPPRLPRPRPRPPHMPRP	-0.115
RRIRHRPPRLPRPRPRPPISPRP	-0.378
RRIRHRPPRLPRPRPRPPIVPRP	-0.252
RRIRHRPPRLPRPRPRPPKEPRP	0.121
RRIRHRPPRLPRPRPRPPKKPRP	-0.0115
RRIRHRPPRLPRPRPRPPLYPRP	-0.151
RRIRHRPPRLPRPRPRPPNEPRP	0.159
RRIRHRPPRLPRPRPRPPNMPRP	-0.0135
RRIRHRPPRLPRPRPRPPQRPRP	0.248
RRIRHRPPRLPRPRPRPPRDPRP	0.346
RRIRHRPPRLPRPRPRPPSHPRP	-0.139

Sequence	shrunken log2 fold change
RRIRHRPPRLPRPRPRPPVCPRP	-0.0372
RRIRHRPPRLPRPRPRPPVKPRP	0.0106
RRIRHRPPRLPRPRPRPPWNPRP	-0.0664
RRIRHRPPRLPRPRPRPPWYPRP	-0.232
RRIRHRPPRLPRPRPRPPYAPRP	-0.00375
RRIRHRPPRLPRPRPRPQAMPRP	-0.00822
RRIRHRPPRLPRPRPRPQATPRP	0.00115
RRIRHRPPRLPRPRPRPQAWPRP	0.00326
RRIRHRPPRLPRPRPRPQAYPRP	-0.451
RRIRHRPPRLPRPRPRPQDIPRP	-0.343
RRIRHRPPRLPRPRPRPQDLPRP	-0.0414
RRIRHRPPRLPRPRPRPQDTPRP	-0.374
RRIRHRPPRLPRPRPRPQEDPRP	-0.106
RRIRHRPPRLPRPRPRPQEMPRP	-0.0755
RRIRHRPPRLPRPRPRPQFVPRP	-0.163
RRIRHRPPRLPRPRPRPQGAPRP	-0.171
RRIRHRPPRLPRPRPRPQGRPRP	0.027
RRIRHRPPRLPRPRPRPQGWPRP	0.0705
RRIRHRPPRLPRPRPRPQHFPRP	0.0728
RRIRHRPPRLPRPRPRPQHVPRP	-0.048
RRIRHRPPRLPRPRPRPQIPPRP	0.0645
RRIRHRPPRLPRPRPRPQLIPRP	0.00748

Sequence	shrunken log2 fold change
RRIRHRPPRLPRPRPRPQLMPRP	-0.351
RRIRHRPPRLPRPRPRPQLWPRP	0.0534
RRIRHRPPRLPRPRPRPQMFPRP	-0.0824
RRIRHRPPRLPRPRPRPQMHPRP	-0.00258
RRIRHRPPRLPRPRPRPQMRPRP	0.209
RRIRHRPPRLPRPRPRPQNKPRP	-0.654
RRIRHRPPRLPRPRPRPQPEPRP	-0.0374
RRIRHRPPRLPRPRPRPQRWPRP	0.00359
RRIRHRPPRLPRPRPRPQSFPRP	0.0133
RRIRHRPPRLPRPRPRPQSIPRP	-0.0188
RRIRHRPPRLPRPRPRPQTDPRP	-1.36
RRIRHRPPRLPRPRPRPQTNPRP	-0.633
RRIRHRPPRLPRPRPRPQTVPRP	-0.495
RRIRHRPPRLPRPRPRPQVIPRP	-0.0106
RRIRHRPPRLPRPRPRPQWPPRP	0.112
RRIRHRPPRLPRPRPRPQWSPRP	-0.0854
RRIRHRPPRLPRPRPRPRASPRP	0.286
RRIRHRPPRLPRPRPRPRCDPRP	0.128
RRIRHRPPRLPRPRPRPRCTPRP	0.0847
RRIRHRPPRLPRPRPRPRCYPRP	-0.154
RRIRHRPPRLPRPRPRPRFEPRP	0.185
RRIRHRPPRLPRPRPRPRGAPRP	0.152

Sequence	shrunken log2 fold change
RRIRHRPPRLPRPRPRPRGSPRP	-0.00481
RRIRHRPPRLPRPRPRPRGVPRP	0.335
RRIRHRPPRLPRPRPRPRHDPRP	-0.0713
RRIRHRPPRLPRPRPRPRHPPRP	0.0823
RRIRHRPPRLPRPRPRPRKFPRP	0.15
RRIRHRPPRLPRPRPRPRKHPRP	-0.113
RRIRHRPPRLPRPRPRPRKRPRP	0.246
RRIRHRPPRLPRPRPRPRLFPRP	0.164
RRIRHRPPRLPRPRPRPRLWPRP	0.63
RRIRHRPPRLPRPRPRPRMCPRP	-0.0257
RRIRHRPPRLPRPRPRPRMYPRP	-0.194
RRIRHRPPRLPRPRPRPRNHPRP	-0.481
RRIRHRPPRLPRPRPRPRNIPRP	-0.326
RRIRHRPPRLPRPRPRPRPAPRP	0.479
RRIRHRPPRLPRPRPRPRPVPRP	0.22
RRIRHRPPRLPRPRPRPRQQPRP	0.283
RRIRHRPPRLPRPRPRPRQVPRP	-0.108
RRIRHRPPRLPRPRPRPRRHPRP	0.153
RRIRHRPPRLPRPRPRPRRQPRP	0.0256
RRIRHRPPRLPRPRPRPRTSPRP	0.245
RRIRHRPPRLPRPRPRPRVFPRP	0.201
